Data: US20200199241A1 (Chugai, published 2020)

T1: human FcγRIIa(R) (human, UniProt P12318 36-217)
T1 construct: also called FcgRIIaR; FcγRIIa type R
T1 chain: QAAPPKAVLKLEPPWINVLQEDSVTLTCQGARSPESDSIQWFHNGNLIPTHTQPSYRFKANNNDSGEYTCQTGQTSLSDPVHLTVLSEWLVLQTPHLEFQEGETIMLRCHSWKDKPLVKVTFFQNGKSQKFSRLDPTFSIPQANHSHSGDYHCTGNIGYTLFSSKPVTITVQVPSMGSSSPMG

T2: human FcγRIIb (human, UniProt P31994 43-217, limits assumed)
T2 construct: also called FcgRIIb
T2 sequence: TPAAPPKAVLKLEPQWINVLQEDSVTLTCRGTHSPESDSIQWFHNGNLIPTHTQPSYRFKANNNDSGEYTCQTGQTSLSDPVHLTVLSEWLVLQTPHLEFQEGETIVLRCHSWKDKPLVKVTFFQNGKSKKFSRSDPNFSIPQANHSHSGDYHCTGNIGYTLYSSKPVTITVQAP

T3: human FcγRIIa(H) (human, UniProt P12318 36-217)
T3 construct: also called FcgRIIaH; FcγRIIa type H
T3 sequence: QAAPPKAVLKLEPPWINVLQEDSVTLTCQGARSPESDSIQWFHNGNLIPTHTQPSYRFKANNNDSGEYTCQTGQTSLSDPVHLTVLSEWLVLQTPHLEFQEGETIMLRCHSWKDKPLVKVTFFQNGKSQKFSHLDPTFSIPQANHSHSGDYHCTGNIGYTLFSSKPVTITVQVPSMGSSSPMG

B1: GpH7-B3 variant D265K/GpL16-k0 (antibody, human IgG1)
heavy: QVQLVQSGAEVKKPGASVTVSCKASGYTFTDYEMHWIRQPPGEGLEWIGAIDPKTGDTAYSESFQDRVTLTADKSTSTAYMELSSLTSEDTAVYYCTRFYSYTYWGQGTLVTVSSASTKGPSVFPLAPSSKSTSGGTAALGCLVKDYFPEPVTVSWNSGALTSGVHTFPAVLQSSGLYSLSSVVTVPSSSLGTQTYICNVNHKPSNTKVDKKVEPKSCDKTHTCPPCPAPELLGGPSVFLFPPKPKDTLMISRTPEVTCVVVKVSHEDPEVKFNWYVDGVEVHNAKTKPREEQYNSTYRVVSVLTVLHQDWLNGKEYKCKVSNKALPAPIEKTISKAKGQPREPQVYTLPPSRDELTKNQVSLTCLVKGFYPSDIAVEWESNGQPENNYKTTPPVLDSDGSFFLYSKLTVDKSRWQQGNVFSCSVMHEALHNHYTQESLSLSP
light: DIVMTQSPLSLPVTPGEPASISCQASESLVHSNRNTYLHWYLQKPGQSPQLLIYKVSNRFSGVPDRFSGSGSGTDFTLKISRVEAEDVGVYYCSQNTHVPPTFGQGTKVEIE
notes: copies: 2 + 2
B2: GpH7-B3 variant D265W/GpL16-k0 (antibody, human IgG1)
heavy: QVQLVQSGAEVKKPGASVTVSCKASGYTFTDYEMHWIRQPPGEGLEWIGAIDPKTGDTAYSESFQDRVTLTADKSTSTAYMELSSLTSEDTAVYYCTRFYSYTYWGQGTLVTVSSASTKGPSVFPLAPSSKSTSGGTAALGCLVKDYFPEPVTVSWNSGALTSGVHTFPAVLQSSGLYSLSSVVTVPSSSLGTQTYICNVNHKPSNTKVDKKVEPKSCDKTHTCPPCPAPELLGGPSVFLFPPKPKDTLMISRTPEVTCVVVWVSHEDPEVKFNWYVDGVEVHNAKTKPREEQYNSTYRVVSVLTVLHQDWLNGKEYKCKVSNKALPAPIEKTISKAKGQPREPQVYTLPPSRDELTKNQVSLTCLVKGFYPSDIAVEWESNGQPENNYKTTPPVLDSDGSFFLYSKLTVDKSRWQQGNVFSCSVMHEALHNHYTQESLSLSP
light: DIVMTQSPLSLPVTPGEPASISCQASESLVHSNRNTYLHWYLQKPGQSPQLLIYKVSNRFSGVPDRFSGSGSGTDFTLKISRVEAEDVGVYYCSQNTHVPPTFGQGTKVEIE
notes: copies: 2 + 2
B3: GpH7-B3 variant E269L/GpL16-k0 (antibody, human IgG1)
heavy: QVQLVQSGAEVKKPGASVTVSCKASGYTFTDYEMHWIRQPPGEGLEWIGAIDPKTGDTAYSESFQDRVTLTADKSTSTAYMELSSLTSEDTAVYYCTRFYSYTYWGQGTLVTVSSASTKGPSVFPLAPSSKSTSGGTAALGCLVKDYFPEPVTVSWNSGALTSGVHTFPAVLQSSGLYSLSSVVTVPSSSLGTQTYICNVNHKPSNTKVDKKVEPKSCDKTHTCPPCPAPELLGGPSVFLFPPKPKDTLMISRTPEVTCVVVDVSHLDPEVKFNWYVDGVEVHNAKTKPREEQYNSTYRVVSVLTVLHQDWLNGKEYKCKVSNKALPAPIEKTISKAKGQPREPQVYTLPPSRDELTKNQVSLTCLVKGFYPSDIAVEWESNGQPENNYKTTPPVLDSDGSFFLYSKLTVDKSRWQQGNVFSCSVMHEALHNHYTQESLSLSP
light: DIVMTQSPLSLPVTPGEPASISCQASESLVHSNRNTYLHWYLQKPGQSPQLLIYKVSNRFSGVPDRFSGSGSGTDFTLKISRVEAEDVGVYYCSQNTHVPPTFGQGTKVEIE
notes: copies: 2 + 2
B4: GpH7-B3 variant D265S/GpL16-k0 (antibody, human IgG1)
heavy: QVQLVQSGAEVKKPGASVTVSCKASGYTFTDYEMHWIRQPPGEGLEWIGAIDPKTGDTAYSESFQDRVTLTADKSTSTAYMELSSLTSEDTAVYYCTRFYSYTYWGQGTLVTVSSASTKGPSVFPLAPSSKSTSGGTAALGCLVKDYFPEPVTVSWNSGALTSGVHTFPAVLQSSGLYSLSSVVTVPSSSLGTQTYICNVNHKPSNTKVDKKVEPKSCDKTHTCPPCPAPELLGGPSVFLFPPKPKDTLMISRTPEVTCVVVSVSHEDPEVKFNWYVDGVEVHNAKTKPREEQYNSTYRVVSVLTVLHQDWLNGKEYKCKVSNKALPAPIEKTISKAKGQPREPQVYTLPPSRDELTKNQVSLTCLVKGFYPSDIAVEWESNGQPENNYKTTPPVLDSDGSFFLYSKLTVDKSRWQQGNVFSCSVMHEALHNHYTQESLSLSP
light: DIVMTQSPLSLPVTPGEPASISCQASESLVHSNRNTYLHWYLQKPGQSPQLLIYKVSNRFSGVPDRFSGSGSGTDFTLKISRVEAEDVGVYYCSQNTHVPPTFGQGTKVEIE
notes: copies: 2 + 2
B5: GpH7-B3 variant D265M/GpL16-k0 (antibody, human IgG1)
heavy: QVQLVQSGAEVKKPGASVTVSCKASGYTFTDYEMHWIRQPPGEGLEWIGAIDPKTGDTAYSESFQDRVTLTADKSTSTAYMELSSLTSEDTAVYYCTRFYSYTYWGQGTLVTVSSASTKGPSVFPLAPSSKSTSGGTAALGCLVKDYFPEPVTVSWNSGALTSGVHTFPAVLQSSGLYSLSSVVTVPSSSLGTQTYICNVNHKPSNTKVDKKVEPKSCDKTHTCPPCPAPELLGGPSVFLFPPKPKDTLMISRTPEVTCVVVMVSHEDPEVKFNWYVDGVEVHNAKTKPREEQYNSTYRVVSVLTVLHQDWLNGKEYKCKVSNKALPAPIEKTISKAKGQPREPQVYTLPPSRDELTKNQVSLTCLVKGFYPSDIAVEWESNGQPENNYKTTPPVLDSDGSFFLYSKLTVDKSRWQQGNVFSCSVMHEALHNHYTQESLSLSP
light: DIVMTQSPLSLPVTPGEPASISCQASESLVHSNRNTYLHWYLQKPGQSPQLLIYKVSNRFSGVPDRFSGSGSGTDFTLKISRVEAEDVGVYYCSQNTHVPPTFGQGTKVEIE
notes: copies: 2 + 2
B6: GpH7-B3 variant D270R/GpL16-k0 (antibody, human IgG1)
heavy: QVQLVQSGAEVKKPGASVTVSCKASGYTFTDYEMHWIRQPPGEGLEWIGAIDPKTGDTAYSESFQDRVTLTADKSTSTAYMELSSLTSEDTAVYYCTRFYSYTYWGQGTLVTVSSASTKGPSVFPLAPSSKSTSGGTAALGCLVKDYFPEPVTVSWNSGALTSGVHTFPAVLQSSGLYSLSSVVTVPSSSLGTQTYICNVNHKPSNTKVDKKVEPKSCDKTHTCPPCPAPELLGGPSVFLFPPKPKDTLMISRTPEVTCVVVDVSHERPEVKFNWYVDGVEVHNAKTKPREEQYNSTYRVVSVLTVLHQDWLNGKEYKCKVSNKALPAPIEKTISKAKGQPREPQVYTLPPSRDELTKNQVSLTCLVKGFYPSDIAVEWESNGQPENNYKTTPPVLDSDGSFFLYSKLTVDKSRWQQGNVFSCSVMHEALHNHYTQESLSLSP
light: DIVMTQSPLSLPVTPGEPASISCQASESLVHSNRNTYLHWYLQKPGQSPQLLIYKVSNRFSGVPDRFSGSGSGTDFTLKISRVEAEDVGVYYCSQNTHVPPTFGQGTKVEIE
notes: copies: 2 + 2
B7: GpH7-B3 variant D265T/GpL16-k0 (antibody, human IgG1)
heavy: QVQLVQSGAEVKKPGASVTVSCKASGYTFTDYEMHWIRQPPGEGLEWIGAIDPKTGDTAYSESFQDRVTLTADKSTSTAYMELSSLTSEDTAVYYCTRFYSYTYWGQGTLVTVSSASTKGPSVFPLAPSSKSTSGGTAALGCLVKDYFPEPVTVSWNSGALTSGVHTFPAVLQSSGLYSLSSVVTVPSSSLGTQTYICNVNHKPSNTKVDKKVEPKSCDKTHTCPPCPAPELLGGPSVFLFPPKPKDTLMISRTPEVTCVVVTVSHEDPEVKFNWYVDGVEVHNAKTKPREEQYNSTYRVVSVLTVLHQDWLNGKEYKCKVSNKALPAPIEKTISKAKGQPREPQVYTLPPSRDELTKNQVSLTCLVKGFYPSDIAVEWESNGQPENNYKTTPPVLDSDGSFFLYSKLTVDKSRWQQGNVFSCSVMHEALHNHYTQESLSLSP
light: DIVMTQSPLSLPVTPGEPASISCQASESLVHSNRNTYLHWYLQKPGQSPQLLIYKVSNRFSGVPDRFSGSGSGTDFTLKISRVEAEDVGVYYCSQNTHVPPTFGQGTKVEIE
notes: copies: 2 + 2
B8: GpH7-B3 variant D270G/GpL16-k0 (antibody, human IgG1)
heavy: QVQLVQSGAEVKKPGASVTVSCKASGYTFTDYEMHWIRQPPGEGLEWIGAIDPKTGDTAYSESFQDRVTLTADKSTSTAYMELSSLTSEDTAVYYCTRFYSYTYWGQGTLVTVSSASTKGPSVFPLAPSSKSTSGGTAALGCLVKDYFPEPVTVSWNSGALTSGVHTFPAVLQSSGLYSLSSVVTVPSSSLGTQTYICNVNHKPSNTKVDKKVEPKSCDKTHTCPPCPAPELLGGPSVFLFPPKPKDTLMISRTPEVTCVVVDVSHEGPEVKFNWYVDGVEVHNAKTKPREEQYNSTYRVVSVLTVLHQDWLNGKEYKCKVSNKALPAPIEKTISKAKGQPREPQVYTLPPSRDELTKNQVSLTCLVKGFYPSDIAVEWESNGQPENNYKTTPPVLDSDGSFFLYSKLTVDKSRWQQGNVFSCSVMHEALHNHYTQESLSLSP
light: DIVMTQSPLSLPVTPGEPASISCQASESLVHSNRNTYLHWYLQKPGQSPQLLIYKVSNRFSGVPDRFSGSGSGTDFTLKISRVEAEDVGVYYCSQNTHVPPTFGQGTKVEIE
notes: copies: 2 + 2
B9: GpH7-B3 variant D270W/GpL16-k0 (antibody, human IgG1)
heavy: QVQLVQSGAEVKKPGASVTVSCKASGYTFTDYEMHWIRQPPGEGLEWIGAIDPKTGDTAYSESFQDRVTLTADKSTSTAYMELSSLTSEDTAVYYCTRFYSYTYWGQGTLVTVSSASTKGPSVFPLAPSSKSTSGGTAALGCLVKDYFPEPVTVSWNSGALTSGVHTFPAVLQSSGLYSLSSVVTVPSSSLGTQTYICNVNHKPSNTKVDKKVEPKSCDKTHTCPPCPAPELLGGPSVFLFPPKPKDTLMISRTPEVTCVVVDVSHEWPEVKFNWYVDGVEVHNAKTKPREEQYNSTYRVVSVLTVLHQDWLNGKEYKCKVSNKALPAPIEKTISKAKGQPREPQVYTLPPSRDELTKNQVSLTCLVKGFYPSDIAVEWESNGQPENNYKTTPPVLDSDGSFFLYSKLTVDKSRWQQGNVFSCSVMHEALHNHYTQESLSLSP
light: DIVMTQSPLSLPVTPGEPASISCQASESLVHSNRNTYLHWYLQKPGQSPQLLIYKVSNRFSGVPDRFSGSGSGTDFTLKISRVEAEDVGVYYCSQNTHVPPTFGQGTKVEIE
notes: copies: 2 + 2
B10: GpH7-B3 variant D265Q/GpL16-k0 (antibody, human IgG1)
heavy: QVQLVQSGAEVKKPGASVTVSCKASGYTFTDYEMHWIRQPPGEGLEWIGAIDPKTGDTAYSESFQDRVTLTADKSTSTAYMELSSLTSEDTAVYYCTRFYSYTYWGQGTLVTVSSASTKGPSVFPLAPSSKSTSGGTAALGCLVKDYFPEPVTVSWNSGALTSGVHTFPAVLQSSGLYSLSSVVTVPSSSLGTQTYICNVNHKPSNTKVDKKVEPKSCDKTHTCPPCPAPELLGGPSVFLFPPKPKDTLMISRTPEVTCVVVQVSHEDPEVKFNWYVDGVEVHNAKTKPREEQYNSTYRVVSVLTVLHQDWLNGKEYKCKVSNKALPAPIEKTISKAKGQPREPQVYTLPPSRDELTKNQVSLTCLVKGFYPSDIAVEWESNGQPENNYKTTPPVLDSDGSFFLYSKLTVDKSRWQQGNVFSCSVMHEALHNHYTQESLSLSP
light: DIVMTQSPLSLPVTPGEPASISCQASESLVHSNRNTYLHWYLQKPGQSPQLLIYKVSNRFSGVPDRFSGSGSGTDFTLKISRVEAEDVGVYYCSQNTHVPPTFGQGTKVEIE
notes: copies: 2 + 2

Assays:
Assay in all cases: SPR (Biacore);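 note: antibody variants captured on sensor chip, Fcγ receptor flowed over at 25 °C, bound receptor normalized to amount of captured antibody, expressed relative to reference antibody set as 100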
human FcγRIa = molecular target: T4, human FcγRIa (human, UniProt P12314 16-292, limits assumed)
T4 construct: also called FcgRIa; FcγRI (CD64)

human FcγRIIIa(F) = molecular target: T5, human FcγRIIIa(F) (human, UniProt P08637 17-208, limits assumed)
T5 construct: also called FcgRIIIaF; allotype F158

human FcγRIIa(R) = molecular target: T1, human FcγRIIa(R)
human FcγRIIb = molecular target: T2, human FcγRIIb
human FcγRIIa(H) = molecular target: T3, human FcγRIIa(H)

T4 sequence (P12314 16-292 limits assumed): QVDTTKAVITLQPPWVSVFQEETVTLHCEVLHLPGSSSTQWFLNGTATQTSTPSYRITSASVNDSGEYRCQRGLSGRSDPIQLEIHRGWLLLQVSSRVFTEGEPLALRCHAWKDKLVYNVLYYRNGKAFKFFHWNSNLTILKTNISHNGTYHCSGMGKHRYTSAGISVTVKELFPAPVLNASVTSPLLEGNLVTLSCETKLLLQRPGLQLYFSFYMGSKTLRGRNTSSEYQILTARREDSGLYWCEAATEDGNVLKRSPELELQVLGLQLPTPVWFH
T5 sequence (P08637 other isoform, or with tags, fused parts or gaps limits assumed): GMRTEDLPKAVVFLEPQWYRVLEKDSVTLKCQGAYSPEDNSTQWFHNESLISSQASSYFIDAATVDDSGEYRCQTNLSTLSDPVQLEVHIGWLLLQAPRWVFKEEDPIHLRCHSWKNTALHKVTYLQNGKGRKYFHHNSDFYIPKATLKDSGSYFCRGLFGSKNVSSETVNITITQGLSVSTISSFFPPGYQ

Binder	relative binding activity (human FcγRIa)	relative binding activity (human FcγRIIIa(F))	relative binding activity (human FcγRIIa(R))	relative binding activity (human FcγRIIb)	relative binding activity (human FcγRIIa(H))
B1	8 % of GpH7-B3/GpL16-k0	-2 % of GpH7-B3/GpL16-k0	-1 % of GpH7-B3/GpL16-k0	0 % of GpH7-B3/GpL16-k0	0 % of GpH7-B3/GpL16-k0
B2	3 % of GpH7-B3/GpL16-k0	-2 % of GpH7-B3/GpL16-k0	-1 % of GpH7-B3/GpL16-k0	-2 % of GpH7-B3/GpL16-k0	0 % of GpH7-B3/GpL16-k0
B3	98 % of GpH7-B3/GpL16-k0	10 % of GpH7-B3/GpL16-k0	20 % of GpH7-B3/GpL16-k0	12 % of GpH7-B3/GpL16-k0	40 % of GpH7-B3/GpL16-k0
B4	20 % of GpH7-B3/GpL16-k0	-2 % of GpH7-B3/GpL16-k0	0 % of GpH7-B3/GpL16-k0	1 % of GpH7-B3/GpL16-k0	2 % of GpH7-B3/GpL16-k0
B5	17 % of GpH7-B3/GpL16-k0	-1 % of GpH7-B3/GpL16-k0	-1 % of GpH7-B3/GpL16-k0	-2 % of GpH7-B3/GpL16-k0	0 % of GpH7-B3/GpL16-k0
B6	45 % of GpH7-B3/GpL16-k0	2 % of GpH7-B3/GpL16-k0	-5 % of GpH7-B3/GpL16-k0	-5 % of GpH7-B3/GpL16-k0	11 % of GpH7-B3/GpL16-k0
B7	48 % of GpH7-B3/GpL16-k0	-2 % of GpH7-B3/GpL16-k0	2 % of GpH7-B3/GpL16-k0	1 % of GpH7-B3/GpL16-k0	5 % of GpH7-B3/GpL16-k0
B8	82 % of GpH7-B3/GpL16-k0	6 % of GpH7-B3/GpL16-k0	3 % of GpH7-B3/GpL16-k0	3 % of GpH7-B3/GpL16-k0	29 % of GpH7-B3/GpL16-k0
B9	74 % of GpH7-B3/GpL16-k0	7 % of GpH7-B3/GpL16-k0	-2 % of GpH7-B3/GpL16-k0	2 % of GpH7-B3/GpL16-k0	38 % of GpH7-B3/GpL16-k0
B10	67 % of GpH7-B3/GpL16-k0	-1 % of GpH7-B3/GpL16-k0	13 % of GpH7-B3/GpL16-k0	4 % of GpH7-B3/GpL16-k0	13 % of GpH7-B3/GpL16-k0
